From patent publication KR20200059381A

Experiments:
[1] = biological target: FMDV 혈청형 SAT1 SAT1/BOT/1/68 (Foot-and-mouth disease virus serotype SAT1); assay: sandwich ELISA, 1E58 coat 4 ug/ml, 1E58-HRP 0.3 ug/ml, virus culture fluid
[2] = biological target: FMDV 혈청형 SAT3 SAT3/ZIM/4/81 (Foot-and-mouth disease virus serotype SAT3); assay: as above
[3] = biological target: FMDV 혈청형 SAT2 SAT2/ZIM/5/81 (Foot-and-mouth disease virus serotype SAT2); assay: as above
[4] = biological target: FMDV 혈청형 A Malaysia97 (Foot-and-mouth disease virus serotype A); assay: as above
[5] = biological target: FMDV 혈청형 O Yunlin/Taiwan/97 (Foot-and-mouth disease virus serotype O); assay: as above
[6] = biological target: FMDV 혈청형 O 김제 (Foot-and-mouth disease virus serotype O); assay: as above
[7] = biological target: FMDV 혈청형 C C3/Resende/BRA/55 (Foot-and-mouth disease virus serotype C); assay: as above
[8] = biological target: FMDV 혈청형 Asia1 MOG/05 (Foot-and-mouth disease virus serotype Asia1); assay: as above
[9] = biological target: FMDV 혈청형 O 보은 1차 (Foot-and-mouth disease virus serotype O); assay: as above
[10] = biological target: FMDV 혈청형 O O1 Manisa (Foot-and-mouth disease virus serotype O); assay: as above
[11] = biological target: FMDV 혈청형 O O/Hapcheon/KOR/2014 (Foot-and-mouth disease virus serotype O); assay: as above
[12] = biological target: FMDV 혈청형 O Primorsky (Foot-and-mouth disease virus serotype O); assay: as above
[13] = biological target: FMDV 혈청형 O 정읍 (Foot-and-mouth disease virus serotype O); assay: as above
[14] = biological target: FMDV 혈청형 A Iran05 (Foot-and-mouth disease virus serotype A); assay: as above
[15] = biological target: FMDV 혈청형 O 진천 (Foot-and-mouth disease virus serotype O); assay: as above
[16] = biological target: FMDV 혈청형 O Campos (Foot-and-mouth disease virus serotype O); assay: as above
[17] = biological target: FMDV 혈청형 A 연천주 (Foot-and-mouth disease virus serotype A); assay: as above
[18] = biological target: FMDV 혈청형 Asia1 CAM/9/80 (Foot-and-mouth disease virus serotype Asia1); assay: as above
[19] = biological target: FMDV 혈청형 O Yang-Ju (Foot-and-mouth disease virus serotype O); assay: as above
[20] = biological target: FMDV 혈청형 A 포천주 (Foot-and-mouth disease virus serotype A); assay: as above
[21] = biological target: FMDV 혈청형 Asia1 Shamir (Foot-and-mouth disease virus serotype Asia1); assay: as above
[22] = biological target: 구제역 바이러스 혈청형 O 배양액(cal1~cal4) (Foot-and-mouth disease virus serotype O); assay: sandwich ELISA, cal3, 1E58 coat 4 ug/ml, 1E58-HRP 0.2 ug/ml, 450 nm
[23] = biological target: 구제역 바이러스 혈청형 O 배양액(cal1~cal4) (Foot-and-mouth disease virus serotype O); assay: sandwich ELISA, cal2, 1E58 coat 2 ug/ml, 1E58-HRP 0.2 ug/ml, 450 nm
[24] = biological target: 구제역 바이러스 혈청형 O 배양액(cal1~cal4) (Foot-and-mouth disease virus serotype O); assay: sandwich ELISA, cal2, 1E58 coat 4 ug/ml, 1E58-HRP 0.4 ug/ml, 450 nm
[25] = biological target: 구제역 바이러스 혈청형 O 배양액(cal1~cal4) (Foot-and-mouth disease virus serotype O); assay: sandwich ELISA, cal4, 1E58 coat 1 ug/ml, 1E58-HRP 0.4 ug/ml, 450 nm
[26] = biological target: 구제역 바이러스 혈청형 O 배양액(cal1~cal4) (Foot-and-mouth disease virus serotype O); assay: sandwich ELISA, cal4, 1E58 coat 8 ug/ml, 1E58-HRP 0.8 ug/ml, 450 nm
[27] = biological target: 구제역 바이러스 혈청형 O 배양액(cal1~cal4) (Foot-and-mouth disease virus serotype O); assay: sandwich ELISA, cal3, 1E58 coat 2 ug/ml, 1E58-HRP 0.8 ug/ml, 450 nm
[28] = biological target: 구제역 바이러스 혈청형 O 배양액(cal1~cal4) (Foot-and-mouth disease virus serotype O); assay: sandwich ELISA, cal3, 1E58 coat 1 ug/ml, 1E58-HRP 0.8 ug/ml, 450 nm
[29] = biological target: 구제역 바이러스 혈청형 O 배양액(cal1~cal4) (Foot-and-mouth disease virus serotype O); assay: sandwich ELISA, cal4, 1E58 coat 4 ug/ml, 1E58-HRP 0.2 ug/ml, 450 nm
[30] = biological target: 구제역 바이러스 혈청형 O 배양액(cal1~cal4) (Foot-and-mouth disease virus serotype O); assay: sandwich ELISA, cal4, 1E58 coat 2 ug/ml, 1E58-HRP 0.4 ug/ml, 450 nm

B1: 단클론항체 1E58 (antibody, V domains shown)
VH: EFQLQQSRPELAKPGASVKISCKTSGHTFTTYTMHWVKQSHVKSLEWIGCFNPNNGGATYNQKFKGKATLTMDKSSNTAYVEVRSLTSDDSAVYYCAYGNYVNFDYWGQGTTLTVSS
VL: DIVLTQSPASLAVSLGQRATISYRASKSVSTSGYSYMHWNQQKPGQPPRLLIYLVSNLESGVPARFSGSGSGTDFTLNIHPVEEEDAATYYCQHIRELTRSEGGPSWKN
O.D (450nm) [1]: 2.22 O.D | O.D (450nm) [2]: 3.6 O.D | O.D (450nm) [3]: 1.95 O.D | O.D (450nm) [4]: 4 O.D | O.D (450nm) [5]: 4 O.D | O.D (450nm) [6]: 4 O.D | O.D (450nm) [7]: 3.75 O.D | O.D (450nm) [8]: 3.85 O.D | O.D (450nm) [9]: 3.64 O.D | O.D (450nm) [10]: 4 O.D | O.D (450nm) [11]: 3.99 O.D | O.D (450nm) [12]: 4 O.D | O.D (450nm) [13]: 3.86 O.D | O.D (450nm) [14]: 4 O.D | O.D (450nm) [15]: 4 O.D | O.D (450nm) [16]: 3.96 O.D | O.D (450nm) [17]: 3.5 O.D | O.D (450nm) [18]: 4 O.D | O.D (450nm) [19]: 4 O.D | O.D (450nm) [20]: 3.87 O.D | O.D (450nm) [21]: 4 O.D | O.D [22]: 1.14 O.D | O.D [23]: 1.8 O.D | O.D [24]: 3.08 O.D | O.D [25]: 0.65 O.D | O.D [26]: 0.59 O.D | O.D [27]: 2.08 O.D | O.D [28]: 1.17 O.D | O.D [29]: 0.63 O.D | O.D [30]: 0.56 O.D
